Measured values taken from patent US10774121B2, “Methods and compositions for treating neurodegenerative disorders and Alzheimer's Disease and improving normal memory” (The Regents of the University of California, priority 2006, dated 2020).

Tested on: protein tyrosine kinase activity
Test: Protein tyrosine kinase ELISA on extracts of β-APP-transfected ES double-null cells mixed with PS-1-transfected DAMI cells
Assay type: cell-based
Conditions: 25 μg protein added, 0-20 min after mixing
Experimental: DAMI:ES cells: Equal numbers (0.5×10^6/ml) of β-APP 695 (Selkoe and Podlisny, 2002)-transfected ES double-null cells and PS-1 transfected DAMI cells were co-cultured at 37° C. for various times between 0-20 mins.
At several times between 0 and 20 min after mixing, an aliquot of each cell mixture was rapidly centrifuged, the culture medium was removed, and the cell pellet was suspended in 200 μl of extraction buffer (50 mM Tris, pH 8.0/150 mM NaCl/0.5% Nonidet-P40) containing protease inhibitors (1 mM 4-(2-aminoethyl) benzene sulfonyl fluoride hydrochloride (AEBSF)/1 μg/ml antipain/0.1 μg/ml pepstatin A/0.1 μg/ml leupeptin) and the phosphatase inhibitor sodium orthovanadate (0.1 mM). The mixture was sonicated with three bursts of 20 sec duration and then centrifuged. These extract supernatants were then used for Western blot and ELISA analyses as described below.
ELISAs Protein tyrosine kinase activity was measured by an Enzyme Linked Immunosorbent Assay (ELISA) using a tyrosine kinase assay kit (Upstate Biotechnology). A biotinylated substrate peptide containing tandem repeats of Poly (Glu4-Tyr) was incubated with supernatants of extracts of transfected cells mixed for different times ([…]) in the presence of non-radioactive ATP and a Mn^2+/Mg^2+ co-factor cocktail according to the manufacturer's protocols. […]

B1: N-terminal domain of PS-2 fused to FLAG: fusion protein with FLAG attached at the N-terminus of the PS-2 N-terminal domain (protein)
chain: MLTFMASDSEEEVCDERTSLMSAESPTPRSCQEGRQGPEDGENTAQWRSQENEEDGEEDPDRYVCSGVPGRPPGLEEELTLKYGAKH
modifications: left off: small tags and cut ends
notes: fusion protein with FLAG attached at the N-terminus of the PS-2 N-terminal domain
  transient increase in protein tyrosine kinase activity after cell mixing: very similar transient increases
Listed as FLAG-PS-2 N-terminal domain fusion peptide
  transient increase in protein tyrosine kinase activity after cell mixing: did not inhibit
